Measured values taken from the supplement of paper PMC10567573.

B1: C19orf51 (parent)
chain: FAPQTGARPSETFARFCKSQESAL
B2: ZNF207 (parent)
chain: FPSAGQAQAAVQGPVGTDFKPLNS

Variants of: B1
Assay: protein stability index of a GFP-peptide fusion (GPS, HEK-293T) (PSI 1-6); higher = more stable
Settings: c terminus: a fixed tail appended
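Note: lentivirally expressed fusions sorted by FACS into six bins by GFP to DsRed ratio, PSI derived from sequencing read proportions per bin multiplied by bin number.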

Protein stability index, by site and new letter:
S22: K 1.33, I 3.24, D 2.04, T 1.88
F13: E 1.98, K 2.31, S 1.41, P 1.07
A7: I 1.79, C 2.92, H 3.46
A23: N 3.57, Q 1.82, I 1.89, P 2.46
K18: L 2.2, V 2.45
G6: Q 1.36, T 2.51, V 2.13
T5: N 2.01
P3: D 2.79, S 1.61, E 2.64
F16: K 2.31, A 2.44
T12: F 2.96, P 1.82, Y 2.48
E11: N 3.64, C 2.86, K 1.03, D 1.85, Y 3.29, F 3.67, T 1.96
P9: W 1.65, K 2.47, H 2.82, E 1.18, Q 2.77, T 3.29
E21: D 2.04, Y 2.22, G 3, H 3.63, K 1.85, C 1.97
R8: D 2.13, Q 1.59, P 2.83, V 2.1, H 2.88, E 2.65, I 1.71
A2: Y 2.59, H 1, N 1.04, S 1.9, K 3.17
R15: G 2.37, S 1.08, I 2.75, V 3.42, L 2.84
S10: Q 1.96, N 1.72, G 2.46, T 2.25, K 2.62, L 1.58
L24: G 2.81, P 1.23, H 1.83, A 3.59, F 3.1
C17: H 1.2, E 1.09, P 1.9, A 2.9, W 3, M 3.12, I 2.98, N 2.79
F1: M 3.59, W 2.58, V 3.3, Y 4.05, C 1.38, G 4.63, I 2.65
S19: P 1.77, C 3.45, H 4.27, K 2.35, Q 1.43, W 1.75, N 1.31, I 2.35
Q4: E 1.84, R 1.94, L 4.02, D 2, P 1.28, I 2.27, H 2.21
Q20: K 1.99, T 3.01, G 1.84, P 2.65, C 3
A14: Y 3.2, S 1.89, V 2.17, I 3.27

Variants of: B2
Assay: as above
Settings: c terminus: a fixed tail appended

Protein stability index, by site and new letter:
G16: R 3.42, A 3.13, W 2.3, T 3.64, M 3.04, N 3.65, D 3.75, E 3.94, H 3.52, Y 2.9, P 3.42, L 3.21, Q 3.93, F 3.17, S 3.48, C 3.37, K 3.12, I 3.27, V 3.25
L22: K 3.58, A 3.67, G 3.25, Y 3.61, W 2.69, T 3.64, P 3.63, E 3.81, F 3.61, D 4.46, C 3.35, R 3.89, H 4.15, N 4.33, V 3.86, M 3.69, I 3.71, Q 2.92, S 3.95
P14: D 4.01, M 3.22, K 2.8, Q 3.62, R 3.36, A 3.47, S 3.34, L 3.04, N 3.68, V 3.32, C 3.04, T 3.3, W 1.97, H 3.71, F 2.55, Y 3.44, I 2.98, G 3.54, E 3.92
G13: W 2.53, T 3.52, S 3.69, V 3.23, Q 3.09, P 3.57, M 3.38, N 3.58, R 3.5, Y 3.12
K20: I 3.34, F 2.35, R 3.49, E 3.98, S 3.34, W 2.59, P 3.35, M 3.33, C 3.85, G 3.77, D 4.07, T 3.59, N 3.72, Y 2.79, A 3.2, H 3.49, Q 3.47, L 3.2, V 3.25
V15: C 3.16, H 3.29, Y 2.93, I 3.84, N 3.88, L 3.44, E 3.77, R 3.28, K 3.58, Q 3.62, G 3.1, T 3.7, M 3.01, W 1.75, A 3.62, S 3.84, D 3.49, P 3.63, F 2.73
D18: L 2.32, K 2.99, P 3.11, F 2.34, T 3.4, Q 3.02, R 2.96, N 3.79, G 2.8, A 3.31, E 3.63, W 2.51, I 2.67, V 2.61, H 2.74, C 2.65, Y 2.36, M 2.85, S 2.81
F19: T 3.55, G 4.15, K 4.17, I 3.64, R 4.11, S 4.03, C 3.49, V 3.35, A 3.85, L 3.91, Y 3.79, P 3.29, N 4.33, D 4.4, M 3.76, Q 3.97, W 3.41, H 3.77, E 4.06
P21: M 3.36, T 3.17, Q 3.88, E 3.55, N 3.62, K 3.69, Y 3.31, I 2.87, V 2.87, R 3.77, S 3.62, H 3.28, A 3.59, F 2.81, C 3.29, G 3.13, L 2.51, W 2.67, D 3.81
T17: V 2.81, N 3.65, P 3.3, K 3.27, H 3.26, W 2.25, Y 2.85, L 2.84, F 3.05, D 4.02, S 3.88, C 3.12, A 3.03, I 3.03, R 3.19, G 3.78, E 3.9, Q 4.12, M 3.03
S24: V 3.19, L 3.12, K 3.71, Q 3.43, Y 2.63, R 3.15, G 3.15, I 2.98, P 3.54, W 1.89, D 4.02, T 3.37, A 3.36, H 3.73, C 3.31, F 2.63, E 3.77, N 3.92, M 3.08
N23: M 3.17, R 3.91, T 3.45, K 3.48, Y 2.68, W 2.01, P 3.03, H 3.44, I 3.15, L 2.71, F 2.41, C 3.37, Q 3.22, E 3.44, S 3.25, D 3.55, V 2.93, G 3.07, A 2.88
